According to publication PMC9872604, “Targeting Multidrug-Recalcitrant Pseudomonas aeruginosa Biofilms: Combined-Enzyme Treatment Enhances Antibiotic Efficacy” (Antimicrobial Agents and Chemotherapy, 2023):

Assays:
purified protein [1] = substrate: CCCCCCCCCC(=O)CC(=O)N[C@H]1CCOC1=O; assay: purified protein; format: biochemical, Ochrobactrum sp. T63; details: 50 mM sodium phosphate pH 6.8, 37 °C, 10 min, 5% methanol substrate
purified protein [2] = substrate: CCCC(=O)N[C@H]1CCOC1=O; assay: purified protein; format: biochemical, Ochrobactrum sp. T63; details: 50 mM sodium phosphate pH 6.8, 37 °C, 10 min, 5% methanol substrate

B1: AidH (Ochrobactrum sp. T63) (protein)
chain: MTINYHELETSHGRIAVRESEGEGAPLLMIHGNSSSGAIFAPQLEGEIGKKWRVIAPDLPGHGKSTDAIDPDRSYSMEGYADAMTEVMQQLGIADAVVFGWSLGGHIGIEMIARYPEMRGLMITGTPPVAREEVGQGFKSGPDMALAGQEIFSERDVESYARSTCGEPFEASLLDIVARTDGRARRIMFEKFGSGTGGNQRDIVAEAQLPIAVVNGRDEPFVELDFVSKVKFGNLWEGKTHVIDNAGHAPFREAPAEFDAYLARFIRDCTQ
notes: full aidH gene in pET28a(+) (BamHI/HindIII), His-tagged, expressed in E. coli BL21(DE3), Ni-NTA and size exclusion purified
Km (purified protein [1]): 240 ± 30 µM
kcat (purified protein [1]): 29.4 ± 1.7 s⁻¹
Km (purified protein [2]): 250 ± 30 µM
kcat (purified protein [2]): 39.8 ± 1.3 s⁻¹
